Test results reported in patent publication US8530213B2, “Compositions and methods for using NADH oxidases” (Georgia Tech Research Corporation, priority 2009, dated 2013).

Columns and labels:
[1] = NOX5 mutants assayed at the cell lysate level, NADH activity; type: biochemical
Method: (§1) Standard assays were performed at 25° C. in 100 mM TEA buffer (pH 7.5) with 5 mM DTT in cuvettes with either a 1 cm or 1 mm path length, depending on the concentration of substrate. Initial activity was measured by following the absorbance change using a Beckman Coulter DU 800 UV/Vis spectrophotometer at 340 nm. Activity of the enzyme was calculated using an extinction coefficient of NAD(P)H, ε, as 6.22 mM^−1 cm^−1. Unless otherwise noted, a substrate concentration of 0.2 mM NADPH was used for assays. 1 unit (U) of activity is defined as […].
(§2) Single mutations were done on residues G178 and L179 into K, R and K, R, H respectively, and double mutations were also investigated with different combinations of the single mutations. The mutation of G178H was excluded due to the fact that the enzyme would then have two histidines next to each other, creating steric hindrance in the binding pocket. The resulting mutants were expressed on small scale and assayed at the cell lysate level.

[2] = NOX5 mutants assayed at the cell lysate level, NADPH activity; type: biochemical
Method: as §1, §2

| Molecule | NADH activity [1] | NADPH activity [2] |
| --- | --- | --- |
| L179H: NADH oxidase derived from Lactobacillus plantarum, L179H mutant (protein, listed as Lactobacillus plantarum) MKVIVIGCTHAGTAAVNQILASNPDTEVTIYERNDNVSFLSCGIALYLGGQVADPQGLFYSSPEQLAKLGATVHMQHDVTDVNTDKHEITVTDLKTGESKTDHYDKLVVTTGSWPVIPPIDGIDSPNVYLCKNWTHAQNLWEAAKPAKRVIVIGGGYIGTELVEAYQKQGKEVTLIDGHPRILNKYLDKEFTDRVEQDFVDHGIKMALNQMVQGFSDDGKEVTVKTDKGSYTADMAILCVGFRPNTGLLKGKVDMNANGSIKTNDYMQTSDPDIYGAGDSVAVHYNPTKKDAYIPLATNAVRQGTLVGLNIFKPTRKYMGTQSTSGLMLFGQTIVSSGMTLEHAQAENVPAAAVTFEDNYRPEFMPTTKPVLMQLVYNPETREILGAQFMSEHDVSQSANVISVMIQNHNTIDDLGFVDMFFQPIYDRPFNYLNLLGQAAIAHAAEAVTE | 1.37 U/mg | 0.64 U/mg |
| G178R/L179H: NADH oxidase derived from Lactobacillus plantarum, G178R/L179H mutant (protein, listed as Lactobacillus plantarum) MKVIVIGCTHAGTAAVNQILASNPDTEVTIYERNDNVSFLSCGIALYLGGQVADPQGLFYSSPEQLAKLGATVHMQHDVTDVNTDKHEITVTDLKTGESKTDHYDKLVVTTGSWPVIPPIDGIDSPNVYLCKNWTHAQNLWEAAKPAKRVIVIGGGYIGTELVEAYQKQGKEVTLIDRHPRILNKYLDKEFTDRVEQDFVDHGIKMALNQMVQGFSDDGKEVTVKTDKGSYTADMAILCVGFRPNTGLLKGKVDMNANGSIKTNDYMQTSDPDIYGAGDSVAVHYNPTKKDAYIPLATNAVRQGTLVGLNIFKPTRKYMGTQSTSGLMLFGQTIVSSGMTLEHAQAENVPAAAVTFEDNYRPEFMPTTKPVLMQLVYNPETREILGAQFMSEHDVSQSANVISVMIQNHNTIDDLGFVDMFFQPIYDRPFNYLNLLGQAAIAHAAEAVTE | 0.64 U/mg | 0.52 U/mg |
| G178K/L179R: NADH oxidase derived from Lactobacillus plantarum, G178K/L179R mutant (protein, listed as Lactobacillus plantarum) MKVIVIGCTHAGTAAVNQILASNPDTEVTIYERNDNVSFLSCGIALYLGGQVADPQGLFYSSPEQLAKLGATVHMQHDVTDVNTDKHEITVTDLKTGESKTDHYDKLVVTTGSWPVIPPIDGIDSPNVYLCKNWTHAQNLWEAAKPAKRVIVIGGGYIGTELVEAYQKQGKEVTLIDKRPRILNKYLDKEFTDRVEQDFVDHGIKMALNQMVQGFSDDGKEVTVKTDKGSYTADMAILCVGFRPNTGLLKGKVDMNANGSIKTNDYMQTSDPDIYGAGDSVAVHYNPTKKDAYIPLATNAVRQGTLVGLNIFKPTRKYMGTQSTSGLMLFGQTIVSSGMTLEHAQAENVPAAAVTFEDNYRPEFMPTTKPVLMQLVYNPETREILGAQFMSEHDVSQSANVISVMIQNHNTIDDLGFVDMFFQPIYDRPFNYLNLLGQAAIAHAAEAVTE | 2.00 U/mg | 5.68 U/mg |
| G178K/L179K: NADH oxidase derived from Lactobacillus plantarum, G178K/L179K mutant (protein, listed as Lactobacillus plantarum) MKVIVIGCTHAGTAAVNQILASNPDTEVTIYERNDNVSFLSCGIALYLGGQVADPQGLFYSSPEQLAKLGATVHMQHDVTDVNTDKHEITVTDLKTGESKTDHYDKLVVTTGSWPVIPPIDGIDSPNVYLCKNWTHAQNLWEAAKPAKRVIVIGGGYIGTELVEAYQKQGKEVTLIDKKPRILNKYLDKEFTDRVEQDFVDHGIKMALNQMVQGFSDDGKEVTVKTDKGSYTADMAILCVGFRPNTGLLKGKVDMNANGSIKTNDYMQTSDPDIYGAGDSVAVHYNPTKKDAYIPLATNAVRQGTLVGLNIFKPTRKYMGTQSTSGLMLFGQTIVSSGMTLEHAQAENVPAAAVTFEDNYRPEFMPTTKPVLMQLVYNPETREILGAQFMSEHDVSQSANVISVMIQNHNTIDDLGFVDMFFQPIYDRPFNYLNLLGQAAIAHAAEAVTE | 0.84 U/mg | 3.11 U/mg |
| L179K: NADH oxidase derived from Lactobacillus plantarum, L179K mutant (protein, listed as Lactobacillus plantarum) MKVIVIGCTHAGTAAVNQILASNPDTEVTIYERNDNVSFLSCGIALYLGGQVADPQGLFYSSPEQLAKLGATVHMQHDVTDVNTDKHEITVTDLKTGESKTDHYDKLVVTTGSWPVIPPIDGIDSPNVYLCKNWTHAQNLWEAAKPAKRVIVIGGGYIGTELVEAYQKQGKEVTLIDGKPRILNKYLDKEFTDRVEQDFVDHGIKMALNQMVQGFSDDGKEVTVKTDKGSYTADMAILCVGFRPNTGLLKGKVDMNANGSIKTNDYMQTSDPDIYGAGDSVAVHYNPTKKDAYIPLATNAVRQGTLVGLNIFKPTRKYMGTQSTSGLMLFGQTIVSSGMTLEHAQAENVPAAAVTFEDNYRPEFMPTTKPVLMQLVYNPETREILGAQFMSEHDVSQSANVISVMIQNHNTIDDLGFVDMFFQPIYDRPFNYLNLLGQAAIAHAAEAVTE | 5.14 U/mg | 1.03 U/mg |
| G178R/L179K: NADH oxidase derived from Lactobacillus plantarum, G178R/L179K mutant (protein, listed as Lactobacillus plantarum) MKVIVIGCTHAGTAAVNQILASNPDTEVTIYERNDNVSFLSCGIALYLGGQVADPQGLFYSSPEQLAKLGATVHMQHDVTDVNTDKHEITVTDLKTGESKTDHYDKLVVTTGSWPVIPPIDGIDSPNVYLCKNWTHAQNLWEAAKPAKRVIVIGGGYIGTELVEAYQKQGKEVTLIDRKPRILNKYLDKEFTDRVEQDFVDHGIKMALNQMVQGFSDDGKEVTVKTDKGSYTADMAILCVGFRPNTGLLKGKVDMNANGSIKTNDYMQTSDPDIYGAGDSVAVHYNPTKKDAYIPLATNAVRQGTLVGLNIFKPTRKYMGTQSTSGLMLFGQTIVSSGMTLEHAQAENVPAAAVTFEDNYRPEFMPTTKPVLMQLVYNPETREILGAQFMSEHDVSQSANVISVMIQNHNTIDDLGFVDMFFQPIYDRPFNYLNLLGQAAIAHAAEAVTE | 0.94 U/mg | 3.56 U/mg |
| G178K/L179H: NADH oxidase derived from Lactobacillus plantarum, G178K/L179H mutant (protein, listed as Lactobacillus plantarum) MKVIVIGCTHAGTAAVNQILASNPDTEVTIYERNDNVSFLSCGIALYLGGQVADPQGLFYSSPEQLAKLGATVHMQHDVTDVNTDKHEITVTDLKTGESKTDHYDKLVVTTGSWPVIPPIDGIDSPNVYLCKNWTHAQNLWEAAKPAKRVIVIGGGYIGTELVEAYQKQGKEVTLIDKHPRILNKYLDKEFTDRVEQDFVDHGIKMALNQMVQGFSDDGKEVTVKTDKGSYTADMAILCVGFRPNTGLLKGKVDMNANGSIKTNDYMQTSDPDIYGAGDSVAVHYNPTKKDAYIPLATNAVRQGTLVGLNIFKPTRKYMGTQSTSGLMLFGQTIVSSGMTLEHAQAENVPAAAVTFEDNYRPEFMPTTKPVLMQLVYNPETREILGAQFMSEHDVSQSANVISVMIQNHNTIDDLGFVDMFFQPIYDRPFNYLNLLGQAAIAHAAEAVTE | 1.24 U/mg | 3.85 U/mg |
| G178R: NADH oxidase derived from Lactobacillus plantarum, G178R mutant (protein, listed as Lactobacillus plantarum) MKVIVIGCTHAGTAAVNQILASNPDTEVTIYERNDNVSFLSCGIALYLGGQVADPQGLFYSSPEQLAKLGATVHMQHDVTDVNTDKHEITVTDLKTGESKTDHYDKLVVTTGSWPVIPPIDGIDSPNVYLCKNWTHAQNLWEAAKPAKRVIVIGGGYIGTELVEAYQKQGKEVTLIDKLPRILNKYLDKEFTDRVEQDFVDHGIKMALNQMVQGFSDDGKEVTVKTDKGSYTADMAILCVGFRPNTGLLKGKVDMNANGSIKTNDYMQTSDPDIYGAGDSVAVHYNPTKKDAYIPLATNAVRQGTLVGLNIFKPTRKYMGTQSTSGLMLFGQTIVSSGMTLEHAQAENVPAAAVTFEDNYRPEFMPTTKPVLMQLVYNPETREILGAQFMSEHDVSQSANVISVMIQNHNTIDDLGFVDMFFQPIYDRPFNYLNLLGQAAIAHAAEAVTE | 1.51 U/mg | 0.23 U/mg |
| G178K: NADH oxidase derived from Lactobacillus plantarum, G178K mutant (protein, listed as Lactobacillus plantarum) MKVIVIGCTHAGTAAVNQILASNPDTEVTIYERNDNVSFLSCGIALYLGGQVADPQGLFYSSPEQLAKLGATVHMQHDVTDVNTDKHEITVTDLKTGESKTDHYDKLVVTTGSWPVIPPIDGIDSPNVYLCKNWTHAQNLWEAAKPAKRVIVIGGGYIGTELVEAYQKQGKEVTLIDKLPRILNKYLDKEFTDRVEQDFVDHGIKMALNQMVQGFSDDGKEVTVKTDKGSYTADMAILCVGFRPNTGLLKGKVDMNANGSIKTNDYMQTSDPDIYGAGDSVAVHYNPTKKDAYIPLATNAVRQGTLVGLNIFKPTRKYMGTQSTSGLMLFGQTIVSSGMTLEHAQAENVPAAAVTFEDNYRPEFMPTTKPVLMQLVYNPETREILGAQFMSEHDVSQSANVISVMIQNHNTIDDLGFVDMFFQPIYDRPFNYLNLLGQAAIAHAAEAVTE | 3.92 U/mg | 0.46 U/mg |
